Substrate in this data set: Nc1ncnc2nc[nH]c12
Briefly: steady-state kinetics of purified enzyme, GDH-coupled ammonia assay. The data set is classed as biochemical, Agrobacterium fabrum. Particulars: binuclear Mn2+ active site at binuclear metal center (adenine pose only modeled).

Drawing on article PMC3059353, this text covers Km for 1 protein.

B1: adenine deaminase Atu4426 (Agrobacterium fabrum str. C58) (protein)
chain: MTAQIRLAEPADLNDDTLRARAVAAARGDQRFDVLITGGTLVDVVTGELRPADIGIVGALIASVHEPASRRDAAQVIDAGGAYVSPGLIDTHMHIESSMITPAAYAAAVVARGVTTIVWDPHEFGNVHGVDGVRWAAKAIENLPLRAILLAPSCVPSAPGLERGGADFDAAILADLLSWPEIGGIAEIMNMRGVIERDPRMSGIVQAGLAAEKLVCGHARGLKNADLNAFMAAGVSSDHELVSGEDLMAKLRAGLTIELRGSHDHLLPEFVAALNTLGHLPQTVTLCTDDVFPDDLLQGGGLDDVVRRLVRYGLKPEWALRAATLNAAQRLGRSDLGLIAAGRRADIVVFEDLNGFSARHVLASGRAVAEGGRMLVDIPTCDTTVLKGSMKLPLRMANDFLVKSQGAKVRLATIDRPRFTQWGETEADVKDGFVVPPEGATMISVTHRHGMAEPTTKTGFLTGWGRWNGAFATTVSHDSHNLTVFGGNAGDMALAANAVIGTGGGMAVASEGKVTAILPLPLSGLVSDAPLEEVARAFEDLREAVGKVVEWQPPYLVFKACFGATLACNIGPHQTDMGIADVLTGKVMESPVIEVLG
In general, Km refers to the substrate concentration at which the rate is half of its maximum. For B1, the Km stood at 320 ± 40 µM.
